Assay results as given in patent US20070280950A1 (MEDICAL AND BIOLOGICAL LABORATORIES, published 2007).

Legend:
human CD61 = molecular target: T1, human CD61 (human, UniProt P05106 27-788); assay: flow cytometry on human cultured cells, 1 µg/ml antibody, FITC anti-mouse IgG secondary; Molt-4 and HUVEC also reactive; antigen later identified as CD61
T1 construct: whole, on cells; Endogenous protein on human cells; In the immunoprecipitation it was solubilised from biotinylated THP-1 cell surfaces with NP-40 and came down together with CD51; also called integrin β3-subunit; integrin β3 chain
Protocol: To identify the antigen of antibody #33, its reactivity to various human cultured cells was examined by flow cytometry. THP-1 activated macrophage-like cells, HPB-ALL, Jurkat, PM-1, Molt-4, KM-3, HL-60, K562, THP-1, U937, 293T, and HUVEC were used as these cells. The THP-1 activated macrophage-like cells were prepared by culturing and differentiating for two days the THP-1 human monocyte-like cell line in RPMI (Sigma) including Streptomycin/Penicillin (Gibco BRL) and 10% FCS (Equitech) into which phorbol ester (PMA) (Sigma) has been added to a final concentration of 5 ng/ml.
Blocking with 1 mg/ml human IgG (Sigma) in FCS was performed for the various human cultured cells (1.0×10⁵ cells) and cells were reacted in a PBS solution comprising 2% FCS (Equitech) antibody #33 at a final concentration of 1 μg/ml at 4° C. for 30 minutes. After washing twice with PBS comprising 2% FCS (Equitech), cells were further reacted with an FITC-labeled anti-mouse IgG secondary antibody (MBL) at 4° C. for 30 minutes. Samples were further washed twice with PBS containing 2% FCS (Equitech) and analyzed with a flow cytometer (ALTRA BC).

CD51 = molecular target: T2, CD51 (human, UniProt P06756 31-1048); assay: flow cytometry, PBMCs double-stained with antibody #33 plus secondary antibody and PE-labeled CD51 antibody
T2 construct: whole, on cells; Co-precipitated with CD61 by antibody #33 from THP-1 cells; ruled out as the antigen by double staining of PBMCs; also called CD51 (112 kDa)
Protocol: A flow cytometry was performed to determine which of CD51 and CD61, listed as candidate antigen molecules for antibody #33, is the antigen for antibody #33. After PBMCs were stained with antibody #33 and a secondary antibody, they were reacted with a PE-labeled CD51 antibody (BC) or a PE-labeled CD61 antibody (SZ21, BC) at 4° C. for 30 minutes and double-stained, after which flow cytometry was performed.

T2 sequence (P06756 31-1048): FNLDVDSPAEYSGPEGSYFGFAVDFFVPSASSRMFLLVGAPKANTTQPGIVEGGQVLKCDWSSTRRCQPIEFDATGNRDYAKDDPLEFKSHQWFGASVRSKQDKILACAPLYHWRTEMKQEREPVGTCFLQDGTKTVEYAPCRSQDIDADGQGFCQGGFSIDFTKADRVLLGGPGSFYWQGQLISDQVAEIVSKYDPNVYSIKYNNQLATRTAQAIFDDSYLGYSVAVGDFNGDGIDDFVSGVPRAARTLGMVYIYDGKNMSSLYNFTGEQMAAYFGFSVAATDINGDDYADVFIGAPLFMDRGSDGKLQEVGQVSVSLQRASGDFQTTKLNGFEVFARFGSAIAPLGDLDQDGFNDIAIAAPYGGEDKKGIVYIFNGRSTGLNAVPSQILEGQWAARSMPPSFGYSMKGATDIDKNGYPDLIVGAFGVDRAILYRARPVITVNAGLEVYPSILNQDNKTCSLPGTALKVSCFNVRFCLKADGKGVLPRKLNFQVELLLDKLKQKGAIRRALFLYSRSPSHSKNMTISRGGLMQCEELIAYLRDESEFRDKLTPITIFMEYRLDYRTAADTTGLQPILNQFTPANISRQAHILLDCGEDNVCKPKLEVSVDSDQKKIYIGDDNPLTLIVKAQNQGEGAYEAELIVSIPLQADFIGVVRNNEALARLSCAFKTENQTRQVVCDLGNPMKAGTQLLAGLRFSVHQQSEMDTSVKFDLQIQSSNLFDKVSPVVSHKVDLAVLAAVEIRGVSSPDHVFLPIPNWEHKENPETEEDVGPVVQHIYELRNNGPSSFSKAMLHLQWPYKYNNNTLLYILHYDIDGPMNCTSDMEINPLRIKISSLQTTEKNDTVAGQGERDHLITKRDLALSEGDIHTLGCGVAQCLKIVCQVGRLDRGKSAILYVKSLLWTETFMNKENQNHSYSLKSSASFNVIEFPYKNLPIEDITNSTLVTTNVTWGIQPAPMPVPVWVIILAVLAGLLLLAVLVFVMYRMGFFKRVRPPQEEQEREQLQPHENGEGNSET
T1 sequence (P05106 27-788): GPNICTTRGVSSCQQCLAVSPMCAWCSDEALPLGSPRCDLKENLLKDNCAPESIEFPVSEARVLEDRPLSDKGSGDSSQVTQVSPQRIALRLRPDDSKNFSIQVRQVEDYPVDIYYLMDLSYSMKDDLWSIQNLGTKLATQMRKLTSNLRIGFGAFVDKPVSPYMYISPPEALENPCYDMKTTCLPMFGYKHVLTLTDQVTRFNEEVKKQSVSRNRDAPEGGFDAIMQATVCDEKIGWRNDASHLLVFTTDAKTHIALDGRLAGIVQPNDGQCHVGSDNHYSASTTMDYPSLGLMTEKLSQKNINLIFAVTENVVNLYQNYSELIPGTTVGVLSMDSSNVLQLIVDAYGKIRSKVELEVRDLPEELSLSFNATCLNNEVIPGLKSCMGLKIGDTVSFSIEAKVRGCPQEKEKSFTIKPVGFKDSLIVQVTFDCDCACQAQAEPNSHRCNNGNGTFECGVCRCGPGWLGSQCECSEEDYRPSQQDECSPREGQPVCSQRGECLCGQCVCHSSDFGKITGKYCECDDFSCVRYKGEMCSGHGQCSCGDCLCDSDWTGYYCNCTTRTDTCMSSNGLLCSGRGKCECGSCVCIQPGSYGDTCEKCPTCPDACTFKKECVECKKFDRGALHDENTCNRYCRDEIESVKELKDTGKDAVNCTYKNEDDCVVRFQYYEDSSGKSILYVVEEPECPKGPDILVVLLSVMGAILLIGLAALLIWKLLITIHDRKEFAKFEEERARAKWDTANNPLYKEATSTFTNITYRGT

binding result (human CD61): binds
binding result (CD51): no binding
B1: antibody #33 (antibody, IgG2a, V domains shown)
VH: EVQLLQSGPELVKPGASMKISCKASGYSFTGYTMNWVKQSHGKNLEWIGLINPYSGVTTYNQRFKGKATLTVDKSSSTAYMELLSLTSEDSAVYYCATRGALGQAYYFDYWGQGTTLTVSS
VL: QIVLTQSPVIMSASPGERVTLTCSASSSVNYMHWYQQKSGTSPKRWIYDTSKLASGVPPRFSGSGFGTSYSLTITNMEAEDAATYYCQQWSSKPPTFGFGTKLELQR
notes: also called monoclonal antibody #33; mouse anti-human CD61 antibody
